± gives the standard deviation of the averaged measurements.
What follows are sequences tested on Saccharomyces cerevisiae (assay: protein stability index of tFT-peptide fusion (C-terminal peptide) (PSI (0-1 scale)); higher = more stable (slower turnover)). Details: genetic background: wild type; temperature: 30 C.
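Note: PSI is a weighted mean of sequencing reads over stability bins, variants kept only with over 10 reads, mCherry proximal and sfGFP distal, peptide attached via GGGS linker.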

| Sequence | protein stability index |
| --- | --- |
| SMGGRVGDLACQ | 0.725 ± 0.042 |
| SMSPHKCSVCFC | 0.644 ± 0.045 |
| SMSPPLSLFPSF | 0.841 ± 0.096 |
| SMSSERYIKRGN | 0.702 ± 0.011 |
| SNFRDISLHAAG | 0.684 ± 0.042 |
| SNGVCVGGSESA | 0.674 ± 0.082 |
| SNIDIEAELNKT | 0.728 ± 0.031 |
| SNIEKKKTIKRK | 0.6929 ± 0.0069 |
| SNKGIKNIKKKT | 0.728 ± 0.0084 |
| SNQHKKKNQLRE | 0.693 ± 0.086 |
| SNRASVCKSGKR | 0.6768 ± 0.0017 |
| SNRLIKKKKKRI | 0.715 ± 0.036 |
| SNWLMTYIIRRK | 0.641 ± 0.012 |
| SPAAGGRVGVRR | 0.715 ± 0.021 |
| SPAPIRFLWTIP | 0.59 ± 0.028 |
| SPAPPLSRPPPH | 0.695 ± 0.0081 |
| SPASPPLPAPPP | 0.68 ± 0.032 |
| SPFLPLHRPRML | 0.653 ± 0.018 |
| SPFSPLPSPRPR | 0.723 ± 0.018 |
| SPGCPNRGAFEI | 0.871 ± 0.07 |
| SPHRQIRKRFEK | 0.714 ± 0.026 |
| SPITSLSGGTKR | 0.631 ± 0.064 |
| SPKGRVISRRQP | 0.602 ± 0.034 |
| SPLFLVIRLPST | 0.62 ± 0.055 |
| SPLLASPSHLSL | 0.71 ± 0.083 |
| SPLLSSPSPFSL | 0.751 ± 0.095 |

| Sequence | protein stability index |
| --- | --- |
| SPLPPARSVPPP | 0.646 ± 0.067 |
| SPLPPPPPVPLP | 0.652 ± 0.082 |
| SPLPPSPSPPTP | 0.725 ± 0.22 |
| SPLRHIPPLHTP | 0.686 ± 0.1 |
| SPPAPPVSPPPP | 0.744 ± 0.042 |
| SPPAPSLPTFPP | 0.617 ± 0.096 |
| SPPARLLASLSP | 0.798 ± 0.2 |
| SPPCSPSALSHL | 0.728 ± 0.053 |
| SPPHAPPPVPSL | 0.751 ± 0.026 |
| SPPHPAALPSSP | 0.7005 ± 0.0032 |
| SPPILPRGLYSH | 0.637 ± 0.0097 |
| SPPLLPPPSLPP | 0.628 ± 0.0056 |
| SPPLPAPPPPIP | 0.60339 ± 3.2e-05 |
| SPPLPSAPPPPR | 0.664 ± 0.027 |
| SPPLQFLPYPFF | 0.685 ± 0.09 |
| SPPLRTFPVTLP | 0.644 ± 0.1 |
| SPPPALLPPLFP | 0.73 ± 0.064 |
| SPPPFLLPRLFS | 0.639 ± 0.096 |
| SPPPISPSLPPL | 0.728 ± 0.029 |
| SPPPNSLPPPPP | 0.7181 ± 0.0043 |
| SPPPPHPPPPAD | 0.651 ± 0.098 |
| SPPPPPLTHSPS | 0.627 ± 0.15 |
| SPPPPPPHPSHP | 0.692 ± 0.027 |
| SPPPPRLPSPTP | 0.744 ± 0.054 |
| SPPPPSPTCPHL | 0.652 ± 0.035 |
| SPPPPTSPRPLT | 0.709 ± 0.0085 |

| Sequence | protein stability index |
| --- | --- |
| SPPPRATLPRPP | 0.689 ± 0.085 |
| SPPPRPLKLFPP | 0.599 ± 0.025 |
| SPPPSPSPPPPL | 0.739 ± 0.049 |
| SPPPSVCPRFPI | 0.761 ± 0.057 |
| SPPRPPSLPPPG | 0.67 ± 0.071 |
| SPPRSRPPPSLQ | 0.679 ± 0.015 |
| SPPSLLATVYFF | 0.7065 ± 0.0015 |
| SPPSPPPPPPPS | 0.691 ± 0.061 |
| SPQKCKSAPSSC | 0.6746 ± 0.0031 |
| SPRGPLVICHHP | 0.745 ± 0.075 |
| SPRHNALHFTLV | 0.644 ± 0.032 |
| SPRLLHPLPSFL | 0.7114 ± 0.0066 |
| SPRLPPPLFLPL | 0.638 ± 0.02 |
| SPRLQAFPGSRA | 0.713 ± 0.032 |
| SPRQARSFLTSS | 0.756 ± 0.026 |
| SPSGLPPPLTYP | 0.667 ± 0.034 |
| SPSLLLSFLSFF | 0.665 ± 0.071 |
| SPSLVVRVSFEF | 0.595 ± 0.025 |
| SPSPFRPAPSLH | 0.7048 ± 0.0061 |
| SPSPPPTPGSPP | 0.718 ± 0.15 |
| SPTLPLTRRHPR | 0.718 ± 0.035 |
| SPTNNTSTQSQT | 0.686 ± 0.012 |
| SPTPRLGGPPPI | 0.723 ± 0.015 |
| SPVFSDFLLSLC | 0.642 ± 0.028 |
| SPVFYYCPGYVD | 0.702 ± 0.05 |
| SPVSLLSFRLLL | 0.573 ± 0.022 |

| Sequence | protein stability index |
| --- | --- |
| SPVTDRRKRRNN | 0.666 ± 0.012 |
| SPYLGTYAPVIK | 0.6804 ± 0.0032 |
| SPYLRISGLVFC | 0.557 ± 0.045 |
| SQKNTQLEADGK | 0.661 ± 0.0093 |
| SQLGDGLLGEGV | 0.697 ± 0.044 |
| SQPIRAMILRVP | 0.53 ± 0.00096 |
| SQQFGSILPGEL | 0.694 ± 0.018 |
| SQRRGLLGRFRI | 0.695 ± 0.011 |
| SQTPPPAPSGHH | 0.69 ± 0.099 |
| SRALSPRAPFGN | 0.76 ± 0.15 |
| SRASATTLRLAT | 0.66 ± 0.015 |
| SRASATYLFNLH | 0.622 ± 0.012 |
| SRAVTDRGWSPR | 0.68 ± 0.028 |
| SRAYDKSRNISI | 0.731 ± 0.062 |
| SRCIIGILTRNF | 0.6836 ± 0.0035 |
| SRCPLLNGIGFR | 0.6471 ± 0.0025 |
| SRCYKETGKVRE | 0.736 ± 0.0071 |
| SRDSGLIDPRFS | 0.66973 ± 0.00044 |
| SRFIDLLFPSSP | 0.705 ± 0.0074 |
| SRFILSRLPLLS | 0.595 ± 0.065 |
| SRFRKSSGLLLK | 0.758 ± 0.09 |
| SRFSPSLPPFLP | 0.661 ± 0.055 |
| SRGNIPVCEGWS | 0.742 ± 0.028 |
| SRGQSSNEVSPL | 0.637 ± 0.017 |
| SRGTKAERISIG | 0.654 ± 0.013 |
| SRGWLHVVGGQV | 0.6843 ± 0.004 |

| Sequence | protein stability index |
| --- | --- |
| SRKASWECVRGG | 0.699 ± 0.015 |
| SRLGVIRGIGLV | 0.67 ± 0.025 |
| SRLPRGTYRGCP | 0.711 ± 0.076 |
| SRLYGHDLRCRL | 0.777 ± 0.091 |
| SRNVGRWSLRVV | 0.632 ± 0.024 |
| SRPLFLSLFSSV | 0.599 ± 0.14 |
| SRPPPFFPPASP | 0.682 ± 0.01 |
| SRRLSLSSLAFP | 0.723 ± 0.0074 |
| SRRRRGRGEWFG | 0.722 ± 0.019 |
| SRSPRSRSRHES | 0.69769 ± 0.00032 |
| SRTNVKVRKTGV | 0.6916 ± 0.0059 |
| SRVARWRSPGCC | 0.6474 ± 0.0012 |
| SRVGWSRLGPGL | 0.68 ± 0.022 |
| SRYVSGGRKRKV | 0.636 ± 0.045 |
| SSCFVIRSLSNP | 0.72 ± 0.14 |
| SSCVSDKLLKNG | 0.695 ± 0.011 |
| SSDNKGLFDTRI | 0.728 ± 0.024 |
| SSFFAFYSRRRF | 0.714 ± 0.052 |
| SSFLAPFRFPLL | 0.675 ± 0.093 |
| SSFLFVPHHYPS | 0.706 ± 0.044 |
| SSFRRFVLVGFE | 0.607 ± 0.011 |
| SSGALLLLTGFM | 0.681 ± 0.013 |
| SSGISEGFERGG | 0.581 ± 0.014 |
| SSGLALGCPLGA | 0.682 ± 0.062 |
| SSGRHCLPCANV | 0.64 ± 0.017 |
| SSLERVHVCPLE | 0.64 ± 0.079 |

| Sequence | protein stability index |
| --- | --- |
| SSLLFVMSYGLL | 0.661 ± 0.027 |
| SSLPDSPLNRER | 0.693 ± 0.038 |
| SSLPLPRVPPPP | 0.717 ± 0.032 |
| SSLSLDERKPRT | 0.712 ± 0.23 |
| SSLVAFPPLPAP | 0.731 ± 0.024 |
| SSLWGAGGRGID | 0.706 ± 0.011 |
| SSMCPDGGYQWV | 0.686 ± 0.0074 |
| SSPPPSAHPLPS | 0.6933 ± 0.0055 |
| SSPPSARSPPPP | 0.717 ± 0.076 |
| SSPPSPPPLTLY | 0.687 ± 0.02 |
| SSPRQITTLTRL | 0.757 ± 0.037 |
| SSPTRARLFFPH | 0.659 ± 0.039 |
| SSPVDPLRPPAP | 0.704 ± 0.013 |
| SSRRQSSRPPHS | 0.648 ± 0.025 |
| SSRTPPRFYSLP | 0.708 ± 0.0074 |
| SSSDPYLLFCHS | 0.741 ± 0.37 |
| SSSLPPSHFYPP | 0.718 ± 0.064 |
| SSSRCRVGHAGW | 0.67 ± 0.0096 |
| SSSTPGRATRVS | 0.652 ± 0.034 |
| SSSVFFFLRRFR | 0.698 ± 0.025 |
| SSSVPHFIFLPR | 0.656 ± 0.028 |
| SSTGRGRGCQEM | 0.684 ± 0.0086 |
| SSVFPSSPAFLP | 0.691 ± 0.0099 |
| STCSTSQPPSPS | 0.663 ± 0.069 |
| STFRICTGVPRP | 0.729 ± 0.0093 |
| STGLRISPPAYM | 0.677 ± 0.0069 |

| Sequence | protein stability index |
| --- | --- |
| STIIYFLTYSDK | 0.634 ± 0.063 |
| STKGAIKVEECI | 0.636 ± 0.023 |
| STLCVRLITSAR | 0.649 ± 0.077 |
| STNNSGRPMSFL | 0.664 ± 0.045 |
| STPPAPPPLLPP | 0.736 ± 0.031 |
| STSYLKLKYSIY | 0.498 ± 0.038 |
| STVESAWPAGPA | 0.712 ± 0.0016 |
| STVSLASPARSP | 0.683 ± 0.048 |
| SVGSLLAFLHRR | 0.68336 ± 0.00055 |
| SVIGLNLVGMGW | 0.641 ± 0.046 |
| SVIYQMMGRIVR | 0.723 ± 0.07 |
| SVLRGLCFDGYR | 0.7252 ± 0.0064 |
| SVLSPTLESLIF | 0.681 ± 0.032 |
| SVNRRTVYRKNK | 0.764 ± 0.17 |
| SVPLTPKTPPPP | 0.701 ± 0.049 |
| SVPSRSSAALCS | 0.714 ± 0.067 |
| SVPYALPTTPPR | 0.676 ± 0.045 |
| SVRLVGHGARDR | 0.699 ± 0.18 |
| SVSPRPSPPAVP | 0.708 ± 0.13 |
| SVVLIQVVSKPT | 0.58 ± 0.015 |
| SVVVIGSSYASG | 0.5899 ± 0.0023 |
| SVVVVAKAKAGR | 0.635 ± 0.047 |
| SVWFSFVKVRGG | 0.612 ± 0.0037 |
| SVYFSLITRPYY | 0.667 ± 0.012 |
| SWCQFAVGGIIH | 0.664 ± 0.013 |
| SWECRGMGVCGG | 0.721 ± 0.02 |

| Sequence | protein stability index |
| --- | --- |
| SWFYTQSEKTLS | 0.7798 ± 0.005 |
| SWGHTGTLRNDI | 0.747 ± 0.035 |
| SWGLSVSSCFVW | 0.578 ± 0.0066 |
| SWICSTRSYQRE | 0.702 ± 0.044 |
| SWMDRGGSYSGI | 0.684 ± 0.12 |
| SWTCSPLKSFHS | 0.734 ± 0.049 |
| SWVELCSQEVVI | 0.603 ± 0.01 |
| SWVVSLGFAIGL | 0.693 ± 0.055 |
| SWYAGGRRWIVV | 0.608 ± 0.022 |
| SYGSLFCSHLDG | 0.6828 ± 0.0014 |
| SYGWSQGPLSCW | 0.767 ± 0.01 |
| SYTIPPSTYLPS | 0.704 ± 0.043 |
| SYVYETERNEST | 0.715 ± 0.019 |
| TACPPSTPSTAF | 0.689 ± 0.033 |
| TAGPHPLSLPPP | 0.709 ± 0.033 |
| TALFRLRRPRLR | 0.801 ± 0.021 |
| TAPRERFGKDPR | 0.649 ± 0.056 |
| TARAGRTASAPR | 0.7084 ± 0.0025 |
| TARVPARLTHAS | 0.683 ± 0.029 |
| TAYRGCSDRNAG | 0.603 ± 0.042 |

— the supplement of paper PMC10724198
